Data set [1] deals with EphA2 WT tagged at the C-terminus with mTURQ or EYFP (UniProt P29317).
The target of another data set is CGA-WLA-YR dimer (N-ter). Description: ITC. (In general: ITC needs no label: the signal is the heat of the interaction.)
The target in a further data set is CGA-WLA-YRPK dimer (5). Put plainly: ITC.
For a further data set, the target named is dimer (4). Put plainly: ITC.
The data set “FRET or BRET” concerns the molecule itself. Put plainly: FRET or BRET. (In general: In BRET a luciferase serves as donor, and the signal depends on an acceptor being close.)

What is called stoichiometry N is a count of units in the complex or per binding partner. One may read the Kd as a measure of binding affinity in units of concentration. Lower therefore signals tighter binding.

“ephrinA1-Fc (ephrinA1 extracellular region fused to the dimeric Fc portion of an antibody) (Fc fusion)” displayed an EC50 of EphA2 autophosphorylation on Y588, endogenous EphA2 in PC3 cells, 15 min in data set [1] of 3.8 nM.

“human EphA2 ligand-binding domain (residues 28-200) (from UniProt P29317 28-200) (domain or fragment)” displayed a stoichiometry N with CGA-WLA-YR dimer (N-ter) of 2.

Molecule “human EphA2 LBD (residues 28–200) (from UniProt P29317 28-200) (domain or fragment)” showed a Kd with CGA-WLA-YRPK dimer (5) of 21 nM. In the data set with dimer (4), this molecule yielded a Kd of 104 nM and a stoichiometry N (EphA2 LBD per peptide) of 2.

B1: EphA2 L223R/L254R/V255R tagged at the C-terminus with mTURQ or EYFP (receptor)
chain: AQGKEVVLLDFAAAGGELGWLTHPYGKGWDLMQNIMNDMPIYMYSVCNVMSGDQDNWLRTNWVYRGEAERIFIELKFTVRDCNSFPGGASSCKETFNLYYAESDLDYGTNFQKRLFTKIDTIAPDEITVSSDFEARHVKLNVEERSVGPLTRKGFYLAFQDIGACVALLSVRVYYKKCPELLQGLAHFPETIAGSDAPSRATVAGTCVDHAVVPPGGEEPRMHCAVDGEWRRPIGQCLCQAGYEKVEDACQACSPGFFKFEASESPCLECPEHTLPSPEGATSCECEEGFFRAPQDPASMPCTRPPSAPHYLTAVGMGAKVELRWTPPQDSGGREDIVYSVTCEQCWPESGECGPCEASVRYSEPPHGLTRTSVTVSDLEPHMNYTFTVEARNGVSGLVTSRSFRTASVSINQTEPPKVRLEGRSTTSLSVSWSIPPPQQSRVWKYEVTYRKKGDSNSYNVRRTEGFSVTLDDLAPDTTYLVQVQALTQEGQGAGSKVHEFQTLSPEGSGNLAVIGGVAVGVVLLLVLAGVGFFIHRRRKNQRARQSPEDVYFSKSEQLKPLKTYVDPHTYEDPNQAVLKFTTEIHPSCVTRQKVIGAGEFGEVYKGMLKTSSGKKEVPVAIKTLKAGYTEKQRVDFLGEAGIMGQFSHHNIIRLEGVISKYKPMMIITEYMENGALDKFLREKDGEFSVLQLVGMLRGIAAGMKYLANMNYVHRDLAARNILVNSNLVCKVSDFGLSRVLEDDPEATYTTSGGKIPIRWTAPEAISYRKFTSASDVWSFGIVMWEVMTYGERPYWELSNHEVMKAINDGFRLPTPMDCPSAIYQLMMQCWQQERARRPKFADIVSILDKLIRAPDSLKTLADFDPRVSIRLPSTSGSEGVPFRTVSEWLESIKMQQYTEHFMAAGYTAIEKVVQMTNDDIKRIGVRLPGHQKRIAYSLLGLKDQVNTVGIPI
As for B1, the “stoichiometry N” value in “FRET or BRET” is 2.

The values above are taken from PMC8858996 (iScience, 2022).
